Laboratory results reported in the RNAGym collection of RNA variant scans (doi:10.1073/pnas.2313332121).

B1: TPR t1 (parent)
chain: GACCAAUCUGCCCUCAGAGCUCGAGAACAUCUUCGGAUGCAGAGGAGGCAGGCUUCGGUGGCGCGAUAGCGCCAACGUCCUCAACCUCCAAUGCAUCCCACCACAUGAUGAUGCCUGAAGAGCCUUGGUUUUUUG

Variants of: B1
Assay: polymerase ribozyme fitness, log enrichment relative to wild type (log ratio); higher = more active; in vitro selection for triplet polymerase activity
In short: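 In triplicate, a single round of in vitro selection was run on each mutant library, PCR-built and transcribed, covering one subunit of a heterodimeric triplet polymerase ribozyme. Frozen incubation at −7 °C followed annealing with a biotinylated primer, partner subunit and triplets, and extended constructs were then gel-excised, streptavidin-captured and taken through RT-PCR. Fitness is the logarithm of genotype enrichment over wild-type enrichment, from inverse-variance-weighted replicate averages of Illumina-sequenced inputs and outputs. […] only genotypes with ≥10 input reads and ≥1 read per output were kept.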

Row | Variant | polymerase ribozyme fitness (log ratio)
1 | G52U C73U A83U G120A C124U | -0.229
2 | A6C U59G C86U G113U | -3.51
3 | U55G C88A C115U C124A G128U | -4.24
4 | U7A C79G C123U | 0.729
5 | G42U G63A A111G U112G C115A | -6
6 | G63A U112A | -0.0284
7 | A37C A68G U78C C82U U133G | -3.87
8 | G19A C123U | -2.48
9 | G52A C79U | -0.581
10 | G42C G77A | -1.99
11 | G47A C53G C73U C86U | -0.0372
12 | A27G G58A A75G | -2.58
13 | G10U C40U G52U C64U | -1.92
14 | A6U C124U U133G | 0.942
15 | C31A U106G G107U | -1.91
16 | C22U | -3.85
17 | G117A U129A | -3.39
18 | A46U G71A C73A A91G | -5.51
19 | G58A A83C | -0.717
20 | G45A U131A | -0.734
21 | U21C G42A | -1.45
22 | C8G U9A G17C A95G C115A | -0.322
23 | U59G C73U U87G U116A | -4.15
24 | U96G A111G U125G | -1.74

Row | Variant | polymerase ribozyme fitness (log ratio)
25 | U54G C124U | 1.5
26 | C8U C123A U132A | 1.43
27 | C11U C101U | -0.727
28 | A37C C70G C79U A121U | 0.503
29 | A29C G51A | -6.28
30 | A105U C115U | -1.94
31 | G44U C49A | -2.67
32 | G47U G110C | -5.49
33 | A18U C40A G120U C123A U129C | -4.63
34 | C62A C70U C86A | -4.26
35 | A18G C31A C62U U112A C115U G122U | -5.9
36 | G10C A16U C115A | -2.52
37 | C3A U133A | -1.44
38 | C3U U14A A111U G120U | -5.57
39 | A43G G52U | -2.44
40 | C53G C79U | -1.64
41 | A6U G48U G71C G117A | -3.59
42 | C85U G113A G120U | -2.7
43 | C8G C13U C79A G117A U126A | -0.523
44 | C28U G36C C79G A111U | -6.86
45 | A37U U133G | -1.2
46 | U9A C98G | -5.74
47 | C34U G71U | -3.99
48 | C40A G69C U106A C124A | -1.51

Row | Variant | polymerase ribozyme fitness (log ratio)
49 | C12U C49A C73U U92C | -1
50 | A6U C13A U21C G69A C82A | -2.61
51 | A37G G69A | -2.42
52 | C49G C72A C79U G93U | -1.3
53 | A2G C88A G93A C115A G117U | -6.36
54 | C40A G48A | -2.24
55 | C8G C13A G57C U78G U112A A118U | 0.98
56 | C11A C49U G93A U129A | -3.29
57 | G42U C72A U96C | -1.5
58 | G36U A66G G69U U87G | -2.53
59 | C15A C28G G61A G120A | -2.11
60 | A27U G120A | -1.65
61 | C53A A74G | -0.303
62 | C22A G120A | -4.53
63 | G51U G71A | -5.06
64 | U54C G120A | -0.357
65 | C11U A29G G77U A84U C89A | -6.04
66 | C8G G61A U78C U92A | -3.12
67 | C13U A18U A43C U59C G71U A105U | -4.76
68 | A37C G44U U133G | -2.6
69 | G10A C64U A103U C123U | -3.16
70 | G48A A95G U132A | -1.21
71 | G35C C115U A118U | -7.09
72 | C53U U54C A90G G122A | -0.961

Row | Variant | polymerase ribozyme fitness (log ratio)
73 | C56A G63A U78C | -4.18
74 | G77C C124U G127A U129A | -0.0326
75 | G51U A74C A121C | -0.422
76 | A43G U92A | -2.96
77 | C53G G63C G127C | -1.19
78 | C88A A121U | 0.835
79 | G10C C64U C123G U133A | 1.47
80 | C20A G23C U33C C62U U106A A108C G117C | -8.64
81 | C53U C72G C104A A121C | -0.137
82 | C3U A16G A90G U112G U116C | 0.876
83 | C22G C31A U92C U96A A111U | -5.09
84 | C11U A24U C28G C62G A83G G113U U133C | -6.38
85 | C22U G52A C88U | -5.75
86 | A29U C56U C123U | -0.0509
87 | C8U A46U G61A C101A G113U | -2.36
88 | A50U C62U U109A A111C G120U A121G | -7.17
89 | C98U G117U G120C U132C | -3.23
90 | C3A C20U G65A C101A A105C C114U U131G | -7.29
91 | C11A C101A | -3.16
92 | C3U G69U | 0.198
93 | G35A G63A | -3.91
94 | C13U G47A C82G C123G U125A | -1.19
95 | C8G G128C | -0.73
96 | A5U C89G | -1.4

Row | Variant | polymerase ribozyme fitness (log ratio)
97 | G57C G61C C88G G113U U116C A121U | -6.29
98 | A43U C62G C82A C101A C123G | -4.38
99 | A50C C76U C88U | -1.73
100 | C49U C80U C114U G122U | -5.64
101 | C70U C85U A91C | -3.52
102 | A74C C82A G113U C124A G128C U131G | -4.12
103 | A18G G36U C56G | -6.14
104 | A46G G48A | -0.934
105 | C8U C49U | 0.318
106 | C53G G71A | -1.22
107 | C89A G110U U132C | -4.16
108 | U32C C56U G60A C88A | -5.77
109 | C85U C94G C104U | -1.9
110 | C8G A29C G48A C70U | -2.95
111 | G25C G69U G110C | -7.38
112 | A29G G60C A74U | -3.15
113 | C8A G45A | 0.134
114 | C8G C11G U54C U55G C56U | -1.33
115 | U21A G42U G63C C82A | -3.34
116 | A43U G120C U132A | 0.0679
117 | C56U G71A C72G G77C C82G A111U | -6.46
118 | C12U G52A U78A | -0.0318
119 | U32C G48U | -1.13
120 | U78G U87C | 0.411

Row | Variant | polymerase ribozyme fitness (log ratio)
121 | A6U G48U C64U U81G | -4.27
122 | A29C A50U C123U U129G | -4.5
123 | A50U G63A U106C | -3.09
124 | C11G G42U C104A A121C | -3.09
125 | G93U A111G G122A | -1.2
126 | A41G C73U A100U | -1.33
127 | G36U C73U | -2.28
128 | G36U G44U A75G U112C U131G | -1.21
129 | A41C C56U | -0.143
130 | U21A U59A U81G C82G C115U | -5.96
131 | C12G A66C | -0.578
132 | C20A C62U | -2.95
133 | A37U U126A | -2.55
134 | C72U U125G | -2.26
135 | A41U G61C | -3.99
136 | A5G C20U C53A G58A C99U | -4.64
137 | C13A U14A U54A | -2.73
138 | C3A U7G U32C G93C A111C | -1.66
139 | U9G A24G C73U | -0.355
140 | U7A G36U G45U C86U | -3.34
141 | C8G G10C G19U A37U C53G | -3.79
142 | A29C U33C U55A C86A C124A | -6.12
143 | A2U G63A | -2.23
144 | C49U C70U U130C | -0.66

Row | Variant | polymerase ribozyme fitness (log ratio)
145 | G69A C86U A111C | -3.32
146 | G42A C70A C85U | -4.88
147 | U78G G120U | -0.202
148 | G39A A50U A118U | -0.352
149 | G10U G48U G93A | -1.17
150 | C8U G39C U96C C101U U116A | -3.66
151 | G44U A46U | -1.83
152 | C11G G19A A37U C85G | -3.64
153 | A43U A74G | -1.55
154 | A6U G48U C72A | 0.271
155 | C49A A50G | -1.27
156 | C64U A66G C86U A95U C99A G117C | -7.47
157 | A2C G120A C123A | -0.977
158 | C13U C49A | -0.597
159 | A2U G52U | -3.41
160 | C4U A43C G45A A74U C124A | -2.29
161 | G39U A41C C94U C124A | 0.616
162 | C89U G120U U125A | -0.262
163 | C49U G93A G110A | -2.9
164 | C40G A43U | -2.95
165 | C12U C82U | 0.282
166 | G61A C82A | -0.883
167 | U9C G113A C114G | -0.741
